Assay results published in article PMC9531996 (The Journal of Cell Biology, 2022).

T1: His6-WDR91(392-747) (UniProt A4D1P6 392-747)
T1 sequence: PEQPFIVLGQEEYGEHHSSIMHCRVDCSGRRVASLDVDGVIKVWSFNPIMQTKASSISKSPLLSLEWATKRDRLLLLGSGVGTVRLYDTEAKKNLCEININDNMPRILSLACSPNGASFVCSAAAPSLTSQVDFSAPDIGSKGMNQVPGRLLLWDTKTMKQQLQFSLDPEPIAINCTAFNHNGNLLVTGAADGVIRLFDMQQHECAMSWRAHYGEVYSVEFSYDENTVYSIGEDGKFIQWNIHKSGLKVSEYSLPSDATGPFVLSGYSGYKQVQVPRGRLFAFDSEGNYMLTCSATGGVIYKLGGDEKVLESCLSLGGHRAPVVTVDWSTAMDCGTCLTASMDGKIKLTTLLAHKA

B1: GST-SNX27(PX) (domain or fragment)
chain: EKQAVPISVPRYKHVEQNGEKFVVYNVYMAGRQLCSKRYREFAILHQNLKREFANFTFPRLPGKWPFSLSEQQLDARRRGLEEYLEKVCSIRVIGESDIMQEFLSESDENYNGVS
B2: WDR91-His6 (natural protein)
chain: MAEAVERTDELVREYLLFRGFTHTLRQLDAEIKADKEKGFRVDKIVDQLQQLMQVYDLAALRDYWSYLERRLFSRLEDIYRPTIHKLKTSLFRFYLVYTIQTNRNDKAQEFFAKQATELQNQAEWKDWFVLPFLPSPDTNPTFATYFSRQWADTFIVSLHNFLSVLFQCMPVPVILNFDAECQRTNQVQEENEVLRQKLFALQAEIHRLKKEEQQPEEEEALVQHKLPPYVSNMDRLGDSELAMVCSQRNASLSQSPRVGFLSSLLPQSKKSPSRLSPAQGPPQPQSSAKKESFGGQGTKGKDPTSGAKDGKSLLSGLATGESGWSQHRQRRLQDHGKERKELFSTTTSQCAEKKPEASGPEAEPCPELHTEPVEPLTRASSAGPEGGGVRPEQPFIVLGQEEYGEHHSSIMHCRVDCSGRRVASLDVDGVIKVWSFNPIMQTKASSISKSPLLSLEWATKRDRLLLLGSGVGTVRLYDTEAKKNLCEININDNMPRILSLACSPNGASFVCSAAAPSLTSQVDFSAPDIGSKGMNQVPGRLLLWDTKTMKQQLQFSLDPEPIAINCTAFNHNGNLLVTGAADGVIRLFDMQQHECAMSWRAHYGEVYSVEFSYDENTVYSIGEDGKFIQWNIHKSGLKVSEYSLPSDATGPFVLSGYSGYKQVQVPRGRLFAFDSEGNYMLTCSATGGVIYKLGGDEKVLESCLSLGGHRAPVVTVDWSTAMDCGTCLTASMDGKIKLTTLLAHKA
B3: GST-SNX2 (natural protein)
chain: MAAEREPPPLGDGKPTDFEDLEDGEDLFTSTVSTLESSPSSPEPASLPAEDISANSNGPKPTEVVLDDDREDLFAEATEEVSLDSPEREPILSSEPSPAVTPVTPTTLIAPRIESKSMSAPVIFDRSREEIEEEANGDIFDIEIGVSDPEKVGDGMNAYMAYRVTTKTSLSMFSKSEFSVKRRFSDFLGLHSKLASKYLHVGYIVPPAPEKSIVGMTKVKVGKEDSSSTEFVEKRRAALERYLQRTVKHPTLLQDPDLRQFLESSELPRAVNTQALSGAGILRMVNKAADAVNKMTIKMNESDAWFEEKQQQFENLDQQLRKLHVSVEALVCHRKELSANTAAFAKSAAMLGNSEDHTALSRALSQLAEVEEKIDQLHQEQAFADFYMFSELLSDYIRLIAAVKGVFDHRMKCWQKWEDAQITLLKKREAEAKMMVANKPDKIQQAKNEIREWEAKVQQGERDFEQISKTIRKEVGRFEKERVKDFKTVIIKYLESLVQTQQQLIKYWEAFLPEAKAIA

Assays:
Test in all cases: pull-down
WDR91-His6 = target: B2
His6-WDR91(392-747) = target: T1, His6-WDR91(392-747)
GST-SNX27 = GST-SNX27 (UniProt Q96L92 1-541)
GST-VPS35 = GST-VPS35 (UniProt Q96QK1 1-796)

B1: binds (WDR91-His6); binds (His6-WDR91(392-747)).

B2: binds (GST-SNX27); binds (GST-VPS35).

B3: binds (WDR91-His6).
